Measurements reported in patent publication US20240043537A1 (MacroGenics, published 2024).

T1: soluble human CD123, His-tagged (human, UniProt P26951 19-305)
T1 construct: Captured on an anti-PentaHis surface; also called soluble CD123; not shown: His tag
T1 sequence (looked up): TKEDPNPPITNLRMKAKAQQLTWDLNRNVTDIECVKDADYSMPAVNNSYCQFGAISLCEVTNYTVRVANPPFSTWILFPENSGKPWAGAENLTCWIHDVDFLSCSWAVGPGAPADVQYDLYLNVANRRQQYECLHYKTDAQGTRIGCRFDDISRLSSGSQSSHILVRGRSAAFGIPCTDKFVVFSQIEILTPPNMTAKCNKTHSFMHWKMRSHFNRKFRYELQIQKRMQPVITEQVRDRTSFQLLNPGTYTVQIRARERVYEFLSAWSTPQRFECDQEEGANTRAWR

B1: T-CD123-WT (other)
chain 1: DFVMTQSPDSLAVSLGERVTMSCKSSQSLLNSGNQKNYLTWYQQKPGQPPKLLIYWASTRESGVPDRFSGSGSGTDFTLTISSLQAEDVAVYYCQNDYSYPYTFGQGTKLEIKGGGSGGGGEVQLVESGGGLVQPGGSLRLSCAASGFTFSTYAMNWVRQAPGKGLEWVGRIRSKYNNYATYYADSVKDRFTISRDDSKNSLYLQMNSLKTEDTAVYYCVRHGNFGNSYVSWFAYWGQGTLVTVSSGGCGGGEVAALEKEVAALEKEVAALEKEVAALEKGGGDKTHTCPPCPAPEAAGGPSVFLFPPKPKDTLMISRTPEVTCVVVDVSHEDPEVKFNWYVDGVEVHNAKTKPREEQYNSTYRVVSVLTVLHQDWLNGKEYKCKVSNKALPAPIEKTISKAKGQPREPQVYTLPPSREEMTKNQVSLWCLVKGFYPSDIAVEWESNGQPENNYKTTPPVLDSDGSFFLYSKLTVDKSRWQQGNVFSCSVMHEALHNHYTQKSLSLSPGK
chain 2: QAVVTQEPSLTVSPGGTVTLTCRSSTGAVTTSNYANWVQQKPGQAPRGLIGGTNKRAPWTPARFSGSLLGGKAALTITGAQAEDEADYYCALWYSNLWVFGGGTKLTVLGGGGSGGGGEVQLVQSGAELKKPGASVKVSCKASGYTFTDYYMKWVRQAPGQGLEWIGDIIPSNGATFYNQKFKGRVTITVDKSTSTAYMELSSLRSEDTAVYYCARSHLLRASWFAYWGQGTLVTVSSGGCGGGKVAALKEKVAALKEKVAALKEKVAALKE
heavy: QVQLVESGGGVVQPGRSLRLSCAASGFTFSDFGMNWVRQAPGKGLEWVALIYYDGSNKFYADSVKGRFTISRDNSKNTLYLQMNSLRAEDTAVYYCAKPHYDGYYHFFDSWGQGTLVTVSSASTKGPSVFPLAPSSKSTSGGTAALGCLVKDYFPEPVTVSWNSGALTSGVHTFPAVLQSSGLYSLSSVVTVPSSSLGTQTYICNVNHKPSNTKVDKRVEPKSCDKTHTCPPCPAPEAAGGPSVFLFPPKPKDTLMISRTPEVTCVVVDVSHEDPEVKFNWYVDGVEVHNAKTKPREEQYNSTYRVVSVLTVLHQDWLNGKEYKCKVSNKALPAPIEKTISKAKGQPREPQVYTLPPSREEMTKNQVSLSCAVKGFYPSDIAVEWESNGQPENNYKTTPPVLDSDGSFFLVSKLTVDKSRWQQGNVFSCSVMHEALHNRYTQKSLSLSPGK
light: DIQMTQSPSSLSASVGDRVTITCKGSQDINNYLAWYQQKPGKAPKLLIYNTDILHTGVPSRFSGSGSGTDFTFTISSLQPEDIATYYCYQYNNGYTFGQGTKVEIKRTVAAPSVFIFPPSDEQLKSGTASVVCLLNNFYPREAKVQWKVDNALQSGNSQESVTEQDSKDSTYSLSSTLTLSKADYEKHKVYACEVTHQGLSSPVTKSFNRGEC
notes: Four-chain trivalent CD123 x CD3 x CD8 molecule with Fc; also called CD123 mAb 1 x CD3 mAb 1 x TRX2 TRIVALENT-type molecule
B2: T-CD123-M2 (other)
chain 1: DFVMTQSPDSLAVSLGERVTMSCKSSQSLLNSGNQKNYLTWYQQKPGQPPKLLIYWASTRESGVPDRFSGSGSGTDFTLTISSLQAEDVAVYYCQNDYSYPYTFGQGTKLEIKGGGSGGGGEVQLVESGGGLVQPGGSLRLSCAASGFTFSTYAMNWVRQAPGKGLEWVGRIRSKYNNYATYYADSVKDRFTISRDDSKNSLYLQMNSLKTEDTAVYYCVRHKNFGNSYVTWFAYWGQGTLVTVSSGGCGGGEVAALEKEVAALEKEVAALEKEVAALEKGGGDKTHTCPPCPAPEAAGGPSVFLFPPKPKDTLMISRTPEVTCVVVDVSHEDPEVKFNWYVDGVEVHNAKTKPREEQYNSTYRVVSVLTVLHQDWLNGKEYKCKVSNKALPAPIEKTISKAKGQPREPQVYTLPPSREEMTKNQVSLWCLVKGFYPSDIAVEWESNGQPENNYKTTPPVLDSDGSFFLYSKLTVDKSRWQQGNVFSCSVMHEALHNHYTQKSLSLSPGK
chain 2: QAVVTQEPSLTVSPGGTVTLTCRSSTGAVTTSNYANWVQQKPGQAPRGLIGGTNKRAPWTPARFSGSLLGGKAALTITGAQAEDEADYYCALWYSNLWVFGGGTKLTVLGGGGSGGGGEVQLVQSGAELKKPGASVKVSCKASGYTFTDYYMKWVRQAPGQGLEWIGDIIPSNGATFYNQKFKGRVTITVDKSTSTAYMELSSLRSEDTAVYYCARSHLLRASWFAYWGQGTLVTVSSGGCGGGKVAALKEKVAALKEKVAALKEKVAALKE
heavy: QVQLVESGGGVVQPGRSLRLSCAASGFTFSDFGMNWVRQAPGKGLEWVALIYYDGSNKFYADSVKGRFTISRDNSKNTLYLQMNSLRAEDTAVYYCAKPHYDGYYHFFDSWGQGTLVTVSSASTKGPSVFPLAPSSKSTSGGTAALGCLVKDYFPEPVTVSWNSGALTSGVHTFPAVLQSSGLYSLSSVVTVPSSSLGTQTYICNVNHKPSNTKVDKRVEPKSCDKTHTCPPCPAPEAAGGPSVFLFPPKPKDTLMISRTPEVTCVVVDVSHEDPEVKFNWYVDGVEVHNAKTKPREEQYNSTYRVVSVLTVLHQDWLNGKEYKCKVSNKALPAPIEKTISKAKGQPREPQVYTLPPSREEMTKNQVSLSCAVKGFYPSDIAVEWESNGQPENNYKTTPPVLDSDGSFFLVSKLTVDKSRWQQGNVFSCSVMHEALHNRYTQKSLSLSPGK
light: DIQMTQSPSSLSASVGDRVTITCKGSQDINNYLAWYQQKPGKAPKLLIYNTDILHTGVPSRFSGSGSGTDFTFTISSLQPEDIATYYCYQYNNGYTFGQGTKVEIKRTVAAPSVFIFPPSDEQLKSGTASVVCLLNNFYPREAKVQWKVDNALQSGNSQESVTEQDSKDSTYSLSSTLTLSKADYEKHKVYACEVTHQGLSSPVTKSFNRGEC
notes: Four-chain trivalent CD123 x CD3 x CD8 molecule with Fc; also called CD123 mAb 1 x CD3 mAb 1 M2 x TRX2 TRIVALENT-type molecule
B3: T-CD123-M18 (other)
chain 1: DFVMTQSPDSLAVSLGERVTMSCKSSQSLLNSGNQKNYLTWYQQKPGQPPKLLIYWASTRESGVPDRFSGSGSGTDFTLTISSLQAEDVAVYYCQNDYSYPYTFGQGTKLEIKGGGSGGGGEVQLVESGGGLVQPGGSLRLSCAASGFTFSTYGMNWVRQAPGKGLEWVGRIRSKYNNYATYYADSVKDRFTISRDDSKNSLYLQMNSLKTEDTAVYYCVRHGNFGNSYVSWFAYWGQGTLVTVSSGGCGGGEVAALEKEVAALEKEVAALEKEVAALEKGGGDKTHTCPPCPAPEAAGGPSVFLFPPKPKDTLMISRTPEVTCVVVDVSHEDPEVKFNWYVDGVEVHNAKTKPREEQYNSTYRVVSVLTVLHQDWLNGKEYKCKVSNKALPAPIEKTISKAKGQPREPQVYTLPPSREEMTKNQVSLWCLVKGFYPSDIAVEWESNGQPENNYKTTPPVLDSDGSFFLYSKLTVDKSRWQQGNVFSCSVMHEALHNHYTQKSLSLSPGK
chain 2: QAVVTQEPSLTVSPGGTVTLTCRSSTGAVTTSNYANWVQQKPGQAPRGLIGGTNKRAPWTPARFSGSLLGGKAALTITGAQAEDEADYYCALWYSNLWVFGGGTKLTVLGGGGSGGGGEVQLVQSGAELKKPGASVKVSCKASGYTFTDYYMKWVRQAPGQGLEWIGDIIPSNGATFYNQKFKGRVTITVDKSTSTAYMELSSLRSEDTAVYYCARSHLLRASWFAYWGQGTLVTVSSGGCGGGKVAALKEKVAALKEKVAALKEKVAALKE
heavy: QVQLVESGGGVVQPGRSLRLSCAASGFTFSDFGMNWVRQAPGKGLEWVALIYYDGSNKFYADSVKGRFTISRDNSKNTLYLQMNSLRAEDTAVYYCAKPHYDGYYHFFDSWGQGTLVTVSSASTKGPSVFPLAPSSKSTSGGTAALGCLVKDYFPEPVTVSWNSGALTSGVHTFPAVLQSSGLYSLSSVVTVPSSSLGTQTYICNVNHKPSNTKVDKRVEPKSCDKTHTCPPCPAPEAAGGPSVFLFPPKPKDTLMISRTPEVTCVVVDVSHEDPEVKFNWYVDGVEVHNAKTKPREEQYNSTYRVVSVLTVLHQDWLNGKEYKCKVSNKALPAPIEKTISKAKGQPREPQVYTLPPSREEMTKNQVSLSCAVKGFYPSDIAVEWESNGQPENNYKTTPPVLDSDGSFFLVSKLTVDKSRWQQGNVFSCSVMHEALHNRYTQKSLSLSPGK
light: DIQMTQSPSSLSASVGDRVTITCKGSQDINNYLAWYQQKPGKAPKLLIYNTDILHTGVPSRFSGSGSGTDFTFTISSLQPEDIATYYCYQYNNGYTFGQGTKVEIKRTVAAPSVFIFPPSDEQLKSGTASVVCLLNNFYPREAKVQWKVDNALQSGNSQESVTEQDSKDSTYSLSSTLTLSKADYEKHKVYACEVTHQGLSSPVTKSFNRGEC
notes: Four-chain trivalent CD123 x CD3 x CD8 molecule with Fc; also called CD123 mAb 1 x CD3 mAb 1 M18 x TRX2 TRIVALENT-type molecule
B4: T-CD123-M1 (other)
chain 1: DFVMTQSPDSLAVSLGERVTMSCKSSQSLLNSGNQKNYLTWYQQKPGQPPKLLIYWASTRESGVPDRFSGSGSGTDFTLTISSLQAEDVAVYYCQNDYSYPYTFGQGTKLEIKGGGSGGGGEVQLVESGGGLVQPGGSLRLSCAASGFTFSTYAMNWVRQAPGKGLEWVGRIRSKYNNYATYYADSVKDRFTISRDDSKNSLYLQMNSLKTEDTAVYYCVRHGNFGNSYVTWFAYWGQGTLVTVSSGGCGGGEVAALEKEVAALEKEVAALEKEVAALEKGGGDKTHTCPPCPAPEAAGGPSVFLFPPKPKDTLMISRTPEVTCVVVDVSHEDPEVKFNWYVDGVEVHNAKTKPREEQYNSTYRVVSVLTVLHQDWLNGKEYKCKVSNKALPAPIEKTISKAKGQPREPQVYTLPPSREEMTKNQVSLWCLVKGFYPSDIAVEWESNGQPENNYKTTPPVLDSDGSFFLYSKLTVDKSRWQQGNVFSCSVMHEALHNHYTQKSLSLSPGK
chain 2: QAVVTQEPSLTVSPGGTVTLTCRSSTGAVTTSNYANWVQQKPGQAPRGLIGGTNKRAPWTPARFSGSLLGGKAALTITGAQAEDEADYYCALWYSNLWVFGGGTKLTVLGGGGSGGGGEVQLVQSGAELKKPGASVKVSCKASGYTFTDYYMKWVRQAPGQGLEWIGDIIPSNGATFYNQKFKGRVTITVDKSTSTAYMELSSLRSEDTAVYYCARSHLLRASWFAYWGQGTLVTVSSGGCGGGKVAALKEKVAALKEKVAALKEKVAALKE
heavy: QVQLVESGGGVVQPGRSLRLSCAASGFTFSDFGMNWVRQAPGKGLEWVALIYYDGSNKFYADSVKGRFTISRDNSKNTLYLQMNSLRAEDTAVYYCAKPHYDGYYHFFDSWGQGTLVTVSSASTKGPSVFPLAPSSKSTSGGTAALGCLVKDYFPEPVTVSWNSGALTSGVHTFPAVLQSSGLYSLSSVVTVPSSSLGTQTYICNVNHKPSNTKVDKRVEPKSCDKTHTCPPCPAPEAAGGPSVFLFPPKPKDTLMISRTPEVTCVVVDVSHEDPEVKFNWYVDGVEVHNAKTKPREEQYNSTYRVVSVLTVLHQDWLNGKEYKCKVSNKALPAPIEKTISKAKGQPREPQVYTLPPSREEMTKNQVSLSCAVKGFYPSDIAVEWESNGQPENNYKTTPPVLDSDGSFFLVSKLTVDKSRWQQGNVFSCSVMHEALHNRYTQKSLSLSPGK
light: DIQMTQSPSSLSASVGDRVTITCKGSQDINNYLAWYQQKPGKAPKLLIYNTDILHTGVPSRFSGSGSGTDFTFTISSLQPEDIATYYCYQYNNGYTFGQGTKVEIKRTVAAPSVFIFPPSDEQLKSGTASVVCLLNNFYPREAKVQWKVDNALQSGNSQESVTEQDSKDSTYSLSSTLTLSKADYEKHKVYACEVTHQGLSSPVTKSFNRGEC
notes: Four-chain trivalent CD123 x CD3 x CD8 molecule with Fc; also called CD123 mAb 1 x CD3 mAb 1 M1 x TRX2 TRIVALENT-type molecule
B5: CD123-M2 (bispecific antibody)
chain 1: DFVMTQSPDSLAVSLGERVTMSCKSSQSLLNSGNQKNYLTWYQQKPGQPPKLLIYWASTRESGVPDRFSGSGSGTDFTLTISSLQAEDVAVYYCQNDYSYPYTFGQGTKLEIKGGGSGGGGEVQLVESGGGLVQPGGSLRLSCAASGFTFSTYAMNWVRQAPGKGLEWVGRIRSKYNNYATYYADSVKDRFTISRDDSKNSLYLQMNSLKTEDTAVYYCVRHKNFGNSYVTWFAYWGQGTLVTVSSGGCGGGEVAALEKEVAALEKEVAALEKEVAALEKGGGDKTHTCPPCPAPEAAGGPSVFLFPPKPKDTLMISRTPEVTCVVVDVSHEDPEVKFNWYVDGVEVHNAKTKPREEQYNSTYRVVSVLTVLHQDWLNGKEYKCKVSNKALPAPIEKTISKAKGQPREPQVYTLPPSREEMTKNQVSLWCLVKGFYPSDIAVEWESNGQPENNYKTTPPVLDSDGSFFLYSKLTVDKSRWQQGNVFSCSVMHEALHNHYTQKSLSLSPGK
chain 2: QAVVTQEPSLTVSPGGTVTLTCRSSTGAVTTSNYANWVQQKPGQAPRGLIGGTNKRAPWTPARFSGSLLGGKAALTITGAQAEDEADYYCALWYSNLWVFGGGTKLTVLGGGGSGGGGEVQLVQSGAELKKPGASVKVSCKASGYTFTDYYMKWVRQAPGQGLEWIGDIIPSNGATFYNQKFKGRVTITVDKSTSTAYMELSSLRSEDTAVYYCARSHLLRASWFAYWGQGTLVTVSSGGCGGGKVAALKEKVAALKEKVAALKEKVAALKE
chain 3: not shown
notes: Three-chain diabody with Fc; also called CD123 x CD3 mAb 1 M2 DART-B-type diabody
B6: CD123-M18 (bispecific antibody)
chain 1: DFVMTQSPDSLAVSLGERVTMSCKSSQSLLNSGNQKNYLTWYQQKPGQPPKLLIYWASTRESGVPDRFSGSGSGTDFTLTISSLQAEDVAVYYCQNDYSYPYTFGQGTKLEIKGGGSGGGGEVQLVESGGGLVQPGGSLRLSCAASGFTFSTYGMNWVRQAPGKGLEWVGRIRSKYNNYATYYADSVKDRFTISRDDSKNSLYLQMNSLKTEDTAVYYCVRHGNFGNSYVSWFAYWGQGTLVTVSSGGCGGGEVAALEKEVAALEKEVAALEKEVAALEKGGGDKTHTCPPCPAPEAAGGPSVFLFPPKPKDTLMISRTPEVTCVVVDVSHEDPEVKFNWYVDGVEVHNAKTKPREEQYNSTYRVVSVLTVLHQDWLNGKEYKCKVSNKALPAPIEKTISKAKGQPREPQVYTLPPSREEMTKNQVSLWCLVKGFYPSDIAVEWESNGQPENNYKTTPPVLDSDGSFFLYSKLTVDKSRWQQGNVFSCSVMHEALHNHYTQKSLSLSPGK
chain 2: QAVVTQEPSLTVSPGGTVTLTCRSSTGAVTTSNYANWVQQKPGQAPRGLIGGTNKRAPWTPARFSGSLLGGKAALTITGAQAEDEADYYCALWYSNLWVFGGGTKLTVLGGGGSGGGGEVQLVQSGAELKKPGASVKVSCKASGYTFTDYYMKWVRQAPGQGLEWIGDIIPSNGATFYNQKFKGRVTITVDKSTSTAYMELSSLRSEDTAVYYCARSHLLRASWFAYWGQGTLVTVSSGGCGGGKVAALKEKVAALKEKVAALKEKVAALKE
chain 3: not shown
notes: Three-chain diabody with Fc; also called CD123 x CD3 mAb 1 M18 DART-B-type diabody

Key:
CD123 on MOLM-13 cells = biological target: T2, CD123 on MOLM-13 cells (UniProt P26951 19-378, limits assumed); experiment: flow cytometry on CD123-expressing MOLM-13 cells, MFI (geo mean) against concentration (nM)
T2 construct: whole, on cells; also called CD123-expressing MOLM-13 cells

soluble human CD3 = soluble human CD3 (human, UniProt P07766 23-126); experiment: SPR (BIAcore), diabody over immobilized soluble human CD3, 1:1 fit
Procedure: (§1) The ability of the CD123-binding diabodies: CD123-WT, CD123-M1, CD123-M2 and CD123-M18 to bind to human CD3 and CD123 was also evaluated using BIAcore®. […] Table 14 presents the calculated kₐ, kd and KD from these studies.

[1] = biological target: T1, soluble human CD123, His-tagged; experiment: SPR (BIAcore), diabody over His-tagged CD123 captured on anti-PentaHis, 1:1 fit
Procedure: as §1

T2 sequence (P26951 19-378 limits assumed): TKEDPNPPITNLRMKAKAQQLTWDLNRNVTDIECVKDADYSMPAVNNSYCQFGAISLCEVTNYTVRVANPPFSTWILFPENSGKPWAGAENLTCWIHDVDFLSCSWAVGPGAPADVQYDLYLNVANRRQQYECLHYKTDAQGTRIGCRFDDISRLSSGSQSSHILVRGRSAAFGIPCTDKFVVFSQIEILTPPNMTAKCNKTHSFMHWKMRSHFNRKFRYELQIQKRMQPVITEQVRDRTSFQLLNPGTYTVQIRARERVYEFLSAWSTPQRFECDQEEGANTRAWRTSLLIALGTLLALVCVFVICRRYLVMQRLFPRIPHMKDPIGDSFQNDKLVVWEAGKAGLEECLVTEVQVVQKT
Chain of soluble human CD3 (P07766 23-126): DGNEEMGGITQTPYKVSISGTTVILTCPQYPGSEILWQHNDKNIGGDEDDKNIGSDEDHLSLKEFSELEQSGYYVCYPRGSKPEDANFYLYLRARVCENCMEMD

Row | Binder | binding result (CD123 on MOLM-13 cells) | Kd (soluble human CD3) [nM] | Kd [1] [nM]
1 | B1 | binds |  | 
2 | B2 | binds |  | 
3 | B3 | binds |  | 
4 | B4 | binds |  | 
5 | B5 |  | 108 | 1.1
6 | B6 |  | 593 | 2.3
